# Measurements: patent publication US20220119540A1 (NANJING GENSCRIPT BIOTECH, published 2022)
# Where a chain is given by its changes, count along the chain named.
# T1: Recombinant monkey OX-40 protein (monkey)
# T1 chain: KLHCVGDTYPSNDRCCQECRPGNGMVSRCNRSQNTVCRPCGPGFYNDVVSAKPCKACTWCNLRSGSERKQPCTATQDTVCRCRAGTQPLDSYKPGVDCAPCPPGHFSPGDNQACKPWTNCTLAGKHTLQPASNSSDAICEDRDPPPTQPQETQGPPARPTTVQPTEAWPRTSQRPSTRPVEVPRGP
# T2: Recombinant human OX40-His protein (human, UniProt P43489 29-214, limits assumed)
# T2 construct: Recombinant antigen protein; also called recombinant human OX-40 protein; human OX-40 protein; not shown: His tag
# T2 sequence (looked up): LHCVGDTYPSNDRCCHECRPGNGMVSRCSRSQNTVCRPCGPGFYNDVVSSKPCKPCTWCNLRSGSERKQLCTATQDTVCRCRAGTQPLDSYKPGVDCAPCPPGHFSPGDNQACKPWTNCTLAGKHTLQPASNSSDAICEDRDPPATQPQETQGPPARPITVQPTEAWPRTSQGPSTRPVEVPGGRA
# T3: OX40 on a functional cell line overexpressing OX40 (UniProt P43489 29-277, limits assumed)
# T3 sequence (looked up): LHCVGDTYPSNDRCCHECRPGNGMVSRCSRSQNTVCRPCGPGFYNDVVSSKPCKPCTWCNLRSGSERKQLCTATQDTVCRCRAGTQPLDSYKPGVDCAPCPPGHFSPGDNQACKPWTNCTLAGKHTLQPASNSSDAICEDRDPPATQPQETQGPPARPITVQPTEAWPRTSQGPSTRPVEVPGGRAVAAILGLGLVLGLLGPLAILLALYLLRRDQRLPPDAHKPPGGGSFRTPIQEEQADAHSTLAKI
# B1: Chimeric antibody (anti-human OX40, recombinant, human IgG1/kappa constant regions) (antibody, V domains shown)
# VH: QIQLVQSGPELKKPGETVKISCKASGYTFTDYSMHWVKQAPGKGLKWMGWISTETGEPTYADDFKGRFAFSLETSASTAYLQIKNLKNEDTASYFCARVRPWYLAVWGAGTTVTVSS
# VL: DIQMTQTTSSLSASLGDRVTISCRASQDISNYLNWYQQKPDGTVKLLIYYTSRLYSGVPSRFSGSGSGADYSLTVSNLEQEDIATYFCQQANTLPLTFGAGTKLELK
# B2: AH02919 humanized anti-human OX40 monoclonal antibody (recombinant human IgG1/kappa) (antibody, V domains shown)
# VH: QVQLVQSGAEVKKPGASVKVSCKASGYTFTDYSMHWVKQAPGQGLEWMGWISTETGEPTYADDFKGRVTITRDTSASTAYLEISSLRSEDTAVYFCARVRPWYLAVWGQGTLVTVSS
# VL: DIQMTQSPSSLSASVGDRVTITCRASQDISNYLNWYQQKPGKAVKLLIYYTSRLYSGVPSRFSGSGSGTDYTLTISSLQPEDIATYYCQQANTLPLTFGGGTKLEIK
# B3: AH02916 humanized anti-human OX40 monoclonal antibody (recombinant human IgG1/kappa) (antibody, V domains shown)
# VH: B2 VH with R72L, L81M, I83L, F95Y
# VL: B2 VL with L73F, Y87F
# B4: AH02921 humanized anti-human OX40 monoclonal antibody (recombinant human IgG1/kappa) (antibody, V domains shown)
# VH: B2 VH with A9P, K38R, V68F, R72L, A105T
# VL: B2 VL with V44P, Y87F
# B5: AH02913 humanized anti-human OX40 monoclonal antibody (recombinant human IgG1/kappa) (antibody, V domains shown)
# VH: B2 VH with A9P, R72L, L81M, I83L
# VL: B2 VL with L73F, Y87F
# B6: AH02906 humanized anti-human OX40 monoclonal antibody (recombinant human IgG1/kappa) (antibody, V domains shown)
# VH: B2 VH with V68F, R72L, L81M, I83L, F95Y
# VL: B2 VL with V44P, Y87F
# B7: AH02915 humanized anti-human OX40 monoclonal antibody (recombinant human IgG1/kappa) (antibody, V domains shown)
# VH: B2 VH with R72L, F95Y
# VL: B2 VL with V44P, Y71F, Y87F
# B8: AH02917 humanized anti-human OX40 monoclonal antibody (recombinant human IgG1/kappa) (antibody, V domains shown)
# VH: B2 VH with V68F, R72L, L81M, I83L
# VL: B2 VL with Y71F
# B9: AH02925 humanized anti-human OX40 monoclonal antibody (recombinant human IgG1/kappa) (antibody, V domains shown)
# VH: B2 VH
# VL: B2 VL with Y71F
# B10: AH02922 humanized anti-human OX40 monoclonal antibody (recombinant human IgG1/kappa) (antibody, V domains shown)
# VH: B2 VH with V20I, K38R, G44R, L81M, I83L, F95Y, A105V
# VL: B2 VL with V44P
# B11: AH02906, prokaryotically expressed antibody product (back-mutation screening) (Fab, V domains shown)
# VH: B2 VH with V68F, R72L, L81M, I83L, F95Y
# VL: B2 VL with V44P, Y87F
# B12: AH02917, prokaryotically expressed antibody product (back-mutation screening) (Fab, V domains shown)
# VH: B2 VH with V68F, R72L, L81M, I83L
# VL: B2 VL with Y71F
# B13: AH02925, prokaryotically expressed antibody product (back-mutation screening) (Fab, V domains shown)
# VH: B2 VH
# VL: B2 VL with Y71F
# B14: AH02916, prokaryotically expressed antibody product (back-mutation screening) (Fab, V domains shown)
# VH: B2 VH with R72L, L81M, I83L, F95Y
# VL: B2 VL with L73F, Y87F
# B15: AH02922, prokaryotically expressed antibody product (back-mutation screening) (Fab, V domains shown)
# VH: B2 VH with V20I, K38R, G44R, L81M, I83L, F95Y, A105V
# VL: B2 VL with V44P
# B16: AH02913, prokaryotically expressed antibody product (back-mutation screening) (Fab, V domains shown)
# VH: B2 VH with A9P, R72L, L81M, I83L
# VL: B2 VL with L73F, Y87F
# B17: AH02919, prokaryotically expressed antibody product (back-mutation screening) (Fab, V domains shown)
# VH: B2 VH
# VL: B2 VL
# B18: AH02923, prokaryotically expressed antibody product (back-mutation screening) (Fab, V domains shown)
# VH: B2 VH with K38R, V68F, I70F, R72L, I83L, F95Y
# VL: B2 VL with L73F
# B19: AH02921, prokaryotically expressed antibody product (back-mutation screening) (Fab, V domains shown)
# VH: B2 VH with A9P, K38R, V68F, R72L, A105T
# VL: B2 VL with V44P, Y87F
# B20: AH02915, prokaryotically expressed antibody product (back-mutation screening) (Fab, V domains shown)
# VH: B2 VH with R72L, F95Y
# VL: B2 VL with V44P, Y71F, Y87F
# Molecular target: T1, Recombinant monkey OX-40 protein
# Assay: ELISA, plate coated with recombinant monkey OX-40 protein, antibody titrated
row,EC50 [µg/mL],Binder
1,0.0618,B1
2,0.0391,B2
3,0.0323,B3
4,0.0376,B4
5,0.0353,B5

# Molecular target: T2, Recombinant human OX40-His protein
# Assay: SPR (Biacore 8K), OX40-HIS coupled to chip, antibody as analyte, 1:1 binding model
# Experimental: The chip surface was equilibrated with HBS-EP buffer at a flow rate of 10 μl/min for 5 min, and then a 1:1 mixture of “NHS+EDC” was injected at a flow rate of 10 μl/min for 100 sec to activate the chip. The antigen protein (OX40-HIS) diluted in 10 mM sodium acetate buffer was injected for about 180 sec at a flow rate of 10 μl/min for coupling, and finally ethanolamine was injected for 200 sec at a flow rate of 10 μl/min to block the surface.
# Three pre-cycles were performed with the HBS-EP buffer as a sample to balance the chip to stabilize the baseline. A low concentration of antibody was injected at a flow rate of 30 μl/min for 200 sec, to allow the antigen to bind to the antibody, and then the buffer was injected at a flow rate of 30 μl/min for 400 sec for dissociation. 10 mM Gly-HCl pH2.0 was injected three times each for 30 sec at a flow rate of 30 μl/min for regeneration, to complete one cycle.
# The antibody concentration was changed to carry out the cycle for measurement at a next gradient concentration until all gradient concentrations (2.5 nM, 5 nM, 10 nM, 20 nM, 40 nM, and […]) and the replicate (such as 20 nM) were tested. The experimental data was double subtracted (minus the background values of the control channel and zero concentration), and fitted to the “1:1 binding” model in the Biacore 8K evaluation software. Biacore 8K was used to determine the affinity of the antibody to the OX40-HIS recombinant protein.
Kd [nM],koff [s⁻¹],kon [M⁻¹ s⁻¹],Binder
2.4,0.000814,339000,B1
2.83,0.00116,408000,B6
3,0.00142,472000,B7
2.6,0.00106,407000,B8
2.22,0.00115,520000,B9
1.36,0.00029,213000,B10
2.09,0.000776,372000,B2
2.46,0.000659,268000,B3
1.34,0.000439,327000,B4
1.76,0.00067,381000,B5

# Molecular target: T3, OX40 on a functional cell line …
# Assay: cell-based or functional assay
"IL-8 secretion by OX40 overexpressing functional cell line, EC50 [nM]","IL-8 secretion by OX40 overexpressing functional cell line, best-fit value Bottom","IL-8 secretion by OX40 overexpressing functional cell line, best-fit value LogEC50","IL-8 secretion by OX40 overexpressing functional cell line, best-fit value Top",Binder
1.03,3060,0.0123,19000,B2
3,3590,0.476,24600,B3
2.14,4420,0.329,19500,B4
1.62,3950,0.209,24200,B5

# Molecular target: T2, Recombinant human OX40-His protein
# Assay: ELISA, plate coated with recombinant human OX-40 protein, antibody titrated
# Experimental: Recombinant human OX-40 protein and recombinant monkey OX-40 protein were respectively used to detect the cross-recognition ability of humanized monoclonal antibodies for human/monkey OX-40 protein.
# The ELISA plate (Nunc) was coated with 100 μl/well of […] recombinant OX40-His protein in PBS at 4° C. overnight. The plate was washed with PBS-T (0.05% Tween) and blocked with 200 μl/well of PBST containing 1% BSA at 37° C. for 0.5 hr. Then the blocking buffer was discarded, 100 μl of 1000 ng/ml purified antibody was added to the first well, 3-fold serial dilutions were made, and a total of 11 test concentration gradients were given. Then the system was incubated for 1 hr at room temperature. The plate was washed three times with PBST and incubated with 100 μl/well of horseradish peroxidase-conjugated goat anti-human Fab fragment-IgG (Fab-specific) (GenScript) at 37° C. for 0.5 hr. The plate was washed 5 times with PBST, and then a TMB developing solution (GenScript) was added and incubated at room temperature for 15 min in the dark. The reaction was terminated by adding 50 μl of 1 M HCl stop solution (Sigma). The plate was read at 450 nm on a microplate reader.
row,EC50 [µg/mL],Binder
1,0.0138,B1
2,0.0143,B2
3,0.0131,B3
4,0.0161,B4
5,0.0161,B5

# Molecular target: T2, Recombinant human OX40-His protein
# Assay: kinetic ranking (RU, 1:1 binding model), prokaryotically expressed antibody product as ligand, OX40-His as analyte
Kd [nM],koff [s⁻¹],kon [M⁻¹ s⁻¹],Binder
15.6,0.00511,328000,B11
13.7,0.00396,288000,B12
14.9,0.00439,295000,B13
15.7,0.00384,245000,B14
2.37,0.000534,225000,B15
12.5,0.00425,339000,B16
15.1,0.00505,335000,B17
10.8,0.00344,317000,B18
3.35,0.0013,388000,B19
14.3,0.00307,215000,B20
